Assay results from US20210079084A1 (OPSIDIO, published 2021).

How the values were obtained:
[1] = molecular target: T1, human stem cell factor isoform SCF248 (human, UniProt P21583 26-273); assay: binding score, flow cytometry on S1/S14 hSCF248 cells
T1 construct: also called hSCF248; soluble SCF

[2] = molecular target: T2, human stem cell factor isoform SCF220 (human, UniProt P21583-2 26-245); assay: flow cytometry on S1/S14 hSCF220 cells
T2 construct: whole, on cells; also called hSCF220; membrane SCF

[3] = molecular target: T1, human stem cell factor isoform SCF248; assay: flow cytometry on S1/S14 hSCF248 cells; printed as BC50 (50% maximal binding)
[4] = molecular target: T2, human stem cell factor isoform SCF220; assay: flow cytometry, directly labelled antibody on S1/S14 hSCF220 cells
Method: Binding of the labeled antibody to the cells was assessed by flow cytometry.

[5] = molecular target: T2, human stem cell factor isoform SCF220; assay: flow cytometry on the SCF220-expressing cell line

T2 sequence (P21583 other isoform, or with tags, fused parts or gaps): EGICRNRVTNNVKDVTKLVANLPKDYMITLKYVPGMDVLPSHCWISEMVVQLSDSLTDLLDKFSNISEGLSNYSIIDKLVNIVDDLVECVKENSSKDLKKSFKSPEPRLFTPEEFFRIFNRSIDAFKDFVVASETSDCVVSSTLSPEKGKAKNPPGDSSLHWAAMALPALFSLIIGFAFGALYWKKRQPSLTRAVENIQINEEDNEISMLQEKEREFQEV
T1 sequence (P21583 26-273 limits assumed): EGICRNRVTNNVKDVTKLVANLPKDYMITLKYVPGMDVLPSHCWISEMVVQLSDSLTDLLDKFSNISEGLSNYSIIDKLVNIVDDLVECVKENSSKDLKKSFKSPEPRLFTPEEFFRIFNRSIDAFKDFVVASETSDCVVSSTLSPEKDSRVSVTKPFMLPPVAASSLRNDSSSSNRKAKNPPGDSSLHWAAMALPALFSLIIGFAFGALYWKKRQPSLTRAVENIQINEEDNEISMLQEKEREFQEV

Binder | binding result [2] | also measured
5H10 VH2/VK2 (antibody, V domains shown, Humanized; Only variable regions are tied to the name) VH: QVQLVQSGAEVKKPGSSVKISCKSSGYAFSSYWMNWVKQRPGQGLEWIGQIYPGDGDTHYNGKFKGKATLTADKSTSTAYMELSSLRSEDTAVYFCSSSNWVGSYWGQGTLVTVSS VL: DVVMTQSPLSLPVTLGQPASISCKSSQSLLESDGKTYLNWLQQRPGQSPRRLIYLVSRLDSGVPDRFTGSGSGTDFTLKISRVEAEDVGVYYCWQGTHLPQTFGGGTKVEIK | – | binding result [1]: binds
5H10 VH3/VK3 (antibody, V domains shown, Humanized; Only variable regions are tied to the name) VH: QVQLVQSGAEVKKPGSSVKVSCKSSGYAFSSYWMNWVRQRPGQGLEWIGQIYPGDGDTHYNGKFKGKATLTADKSTSTAYMELSSLRSEDTAVYFCSSSNWVGSYWGQGTLVTVSS VL: DVVMTQSPLSLPVTLGQPASISCKSSQSLLESDGKTYLNWLQQRPGQSPRRLIYLVSRLDSGVPDRFSGSGSGTDFTLKISRVEAEDVGVYYCWQGTHLPQTFGGGTKVEIK | no binding | EC50 [3]: 0.9 µg/mL
murine 5H10 antibody (antibody, V domains shown, Murine monoclonal from a hybridoma, kappa light chain; also called OpSCF; murine parent 5H10) VH: QVQLQQSGAELVRPGSSVKISCKSSGYAFSSYWMNWVKQRPGQGLEWIGQIYPGDGDTHYNGKFKGKATLTADKSSSTAYMQLSRLTSEDSAVYFCSSSNWVGSYWGQGTLVTVSA VL: not shown | – | binding result [4]: no binding
5H10 VH0/VK0 (chimeric 5H10) (antibody, V domains shown, also called chimeric antibody 5H10) VH: QVQLQQSGAELVRPGSSVKISCKSSGYAFSSYWMNWVKQRPGQGLEWIGQIYPGDGDTHYNGKFKGKATLTADKSSSTAYMQLSRLTSEDSAVYFCSSSNWVGSYWGQGTLVTVSA VL: not shown | no binding | –
5H10 VH2/VK3 (antibody, V domains shown, Humanized; Only variable regions are tied to the name) VH: QVQLVQSGAEVKKPGSSVKISCKSSGYAFSSYWMNWVKQRPGQGLEWIGQIYPGDGDTHYNGKFKGKATLTADKSTSTAYMELSSLRSEDTAVYFCSSSNWVGSYWGQGTLVTVSS VL: DVVMTQSPLSLPVTLGQPASISCKSSQSLLESDGKTYLNWLQQRPGQSPRRLIYLVSRLDSGVPDRFSGSGSGTDFTLKISRVEAEDVGVYYCWQGTHLPQTFGGGTKVEIK | – | binding result [5]: no binding
5H10 VH1/VK1 (antibody, V domains shown, Humanized; Only variable regions are tied to the name) VH: QVQLVQSGAELKKPGSSVKISCKSSGYAFSSYWMNWVKQRPGQGLEWIGQIYPGDGDTHYNGKFKGKATLTADKSTSTAYMELSSLTSEDSAVYFCSSSNWVGSYWGQGTLVTVSS VL: DVVMTQSPLTLSVTLGQPASISCKSSQSLLESDGKTYLNWLQQRPGQSPRRLIYLVSRLDSGVPDRFTGSGSGTDFTLKISRVEAEDVGVYYCWQGTHLPQTFGGGTKVEIK | – | binding result [1]: binds
5H10 VH4/VK3 (antibody, V domains shown, Humanized; Only variable regions are tied to the name) VH: QVQLVQSGAEVKKPGSSVKVSCKSSGYAFSSYWMNWVRQRPGQGLEWIGQIYPGDGDTHYNGKFKGRVTITADKSTSTAYMELSSLRSEDTAVYFCSSSNWVGSYWGQGTLVTVSS VL: DVVMTQSPLSLPVTLGQPASISCKSSQSLLESDGKTYLNWLQQRPGQSPRRLIYLVSRLDSGVPDRFSGSGSGTDFTLKISRVEAEDVGVYYCWQGTHLPQTFGGGTKVEIK | no binding | –
5H10 VH1/VK2 (antibody, V domains shown, Humanized; Only variable regions are tied to the name) VH: QVQLVQSGAELKKPGSSVKISCKSSGYAFSSYWMNWVKQRPGQGLEWIGQIYPGDGDTHYNGKFKGKATLTADKSTSTAYMELSSLTSEDSAVYFCSSSNWVGSYWGQGTLVTVSS VL: DVVMTQSPLSLPVTLGQPASISCKSSQSLLESDGKTYLNWLQQRPGQSPRRLIYLVSRLDSGVPDRFTGSGSGTDFTLKISRVEAEDVGVYYCWQGTHLPQTFGGGTKVEIK | – | binding result [1]: binds
5H10 VH5/VK3 (antibody, V domains shown, Humanized; Only variable regions are tied to the name) VH: QVQLVQSGAEVKKPGSSVKVSCKSSGYAFSSYWMNWVRQRPGQGLEWIGQIYPGDGDTHYNGKFQGRVTITADKSTSTAYMELSSLRSEDTAVYYCSSSNWVGSYWGQGTLVTVSS VL: DVVMTQSPLSLPVTLGQPASISCKSSQSLLESDGKTYLNWLQQRPGQSPRRLIYLVSRLDSGVPDRFSGSGSGTDFTLKISRVEAEDVGVYYCWQGTHLPQTFGGGTKVEIK | no binding | –
5H10 VH3/VK2 (antibody, V domains shown, Humanized; Only variable regions are tied to the name) VH: QVQLVQSGAEVKKPGSSVKVSCKSSGYAFSSYWMNWVRQRPGQGLEWIGQIYPGDGDTHYNGKFKGKATLTADKSTSTAYMELSSLRSEDTAVYFCSSSNWVGSYWGQGTLVTVSS VL: DVVMTQSPLSLPVTLGQPASISCKSSQSLLESDGKTYLNWLQQRPGQSPRRLIYLVSRLDSGVPDRFTGSGSGTDFTLKISRVEAEDVGVYYCWQGTHLPQTFGGGTKVEIK | no binding | –
5H10 VH4/VK2 (antibody, V domains shown, Humanized; Only variable regions are tied to the name) VH: QVQLVQSGAEVKKPGSSVKVSCKSSGYAFSSYWMNWVRQRPGQGLEWIGQIYPGDGDTHYNGKFKGRVTITADKSTSTAYMELSSLRSEDTAVYFCSSSNWVGSYWGQGTLVTVSS VL: DVVMTQSPLSLPVTLGQPASISCKSSQSLLESDGKTYLNWLQQRPGQSPRRLIYLVSRLDSGVPDRFTGSGSGTDFTLKISRVEAEDVGVYYCWQGTHLPQTFGGGTKVEIK | no binding | –
5H10 VH5/VK2 (antibody, V domains shown, Humanized; Only variable regions are tied to the name) VH: QVQLVQSGAEVKKPGSSVKVSCKSSGYAFSSYWMNWVRQRPGQGLEWIGQIYPGDGDTHYNGKFQGRVTITADKSTSTAYMELSSLRSEDTAVYYCSSSNWVGSYWGQGTLVTVSS VL: DVVMTQSPLSLPVTLGQPASISCKSSQSLLESDGKTYLNWLQQRPGQSPRRLIYLVSRLDSGVPDRFTGSGSGTDFTLKISRVEAEDVGVYYCWQGTHLPQTFGGGTKVEIK | no binding | –
5H10 VH1/VK3 (antibody, V domains shown, Humanized; Only variable regions are tied to the name) VH: QVQLVQSGAELKKPGSSVKISCKSSGYAFSSYWMNWVKQRPGQGLEWIGQIYPGDGDTHYNGKFKGKATLTADKSTSTAYMELSSLTSEDSAVYFCSSSNWVGSYWGQGTLVTVSS VL: DVVMTQSPLSLPVTLGQPASISCKSSQSLLESDGKTYLNWLQQRPGQSPRRLIYLVSRLDSGVPDRFSGSGSGTDFTLKISRVEAEDVGVYYCWQGTHLPQTFGGGTKVEIK | – | binding result [5]: no binding
